The values below come from article PMC11955523, “Cryo-TEM structure of β-glucocerebrosidase in complex with its transporter LIMP-2” (Nature Communications, 2025).

Positions count from the first letter of the chain named.

What all share (settings): both partners purified
For test [1], the target named is T1, β-glucocerebrosidase (GCase), untagged wild type (human, UniProt P04062, N-glycans at N19, N59, N146, N270).
T1 construct: β-glucocerebrosidase (GCase), human, gene GBA1, wild type, expressed from the commercial plasmid pCMV3-GBA-wt; also called GCase wt; wt GCase; source: HEK 293F-sL2 cells transfected with pCMV3-GBA-wt, secreted in complex with sLIMP-2, purified (Ni-NTA, SEC); HEK 293F cells co-transfected with sLIMP-2 plasmids, in conditioned medium
Put plainly: cryo-EM structure; GCase/sLIMP-2/PMb1/PMb2 complex from SEC, 0.6 mg/ml, single particle analysis, 3.7 Å global resolution.

In test [2] the target is T2, GCase used for size exclusion chromatography with Nb1 and Nb6 (human, UniProt P04062).
T2 construct: β-glucocerebrosidase (GCase); it may be the same as m8 or another recombinant GCase
Put plainly: SEC; 20 µM GCase mixed with 100 µM Nb1, Nb6 or both; Superdex 200 Increase 5/150 GL, 10 mM MES, 100 mM NaCl, 1 mM DTT, 5% glycerol, pH 5.2, 12 °C.

For test [3], the target named is T3, recombinant GCase with C-terminal His10-tag (for cross-linking with SapC) (human, UniProt P04062 40-536).
T3 construct: β-glucocerebrosidase (GCase), with a small spacer and a TEV protease cleavage site before the C-terminal His10-tag; no TEV cleavage is described; source: FreeStyle 293 HEK cells, stably transfected (pcDNA3.1(+)), purified from cell media (HisTrap)
T3 sequence (looked up): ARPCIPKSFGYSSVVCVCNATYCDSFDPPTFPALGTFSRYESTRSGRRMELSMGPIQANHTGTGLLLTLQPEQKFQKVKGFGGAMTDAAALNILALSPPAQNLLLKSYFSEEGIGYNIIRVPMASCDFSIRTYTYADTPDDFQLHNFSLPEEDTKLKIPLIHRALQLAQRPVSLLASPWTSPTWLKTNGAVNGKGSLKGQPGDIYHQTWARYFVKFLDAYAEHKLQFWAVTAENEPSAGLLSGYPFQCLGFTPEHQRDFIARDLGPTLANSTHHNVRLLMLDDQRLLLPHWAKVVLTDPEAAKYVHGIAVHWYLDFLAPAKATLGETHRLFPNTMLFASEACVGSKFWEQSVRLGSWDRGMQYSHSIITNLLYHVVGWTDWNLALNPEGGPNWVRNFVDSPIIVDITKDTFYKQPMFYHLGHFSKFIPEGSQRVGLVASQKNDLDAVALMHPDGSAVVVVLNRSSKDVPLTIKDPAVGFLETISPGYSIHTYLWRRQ
Put plainly: cross-linking; GCase 16.3-20.0 µM and SapC 32.5 µM in McIlvaine buffer pH 6.0 with 10 mM NaCl (some reactions with 0.1% Triton X-100 and 0.25% sodium taurocholate); BS3(d0)/BS3(d4) or DTSSP at 1 mM, 1 h at room temperature; gel bands read by mass spectrometry.

Test [4] has as its target T4, β-glucocerebrosidase (GCase), untagged wild type (human, UniProt P04062 40-536, N-glycans at N19, N59, N146, N270).
T4 construct: β-glucocerebrosidase (GCase), human, gene GBA1, wild type, expressed from the commercial plasmid pCMV3-GBA-wt; also called GCase wt; wt GCase; source: HEK 293F-sL2 cells transfected with pCMV3-GBA-wt, secreted in complex with sLIMP-2, purified (Ni-NTA, SEC); HEK 293F cells co-transfected with sLIMP-2 plasmids, in conditioned medium
T4 sequence (looked up): T3 sequence (looked up)
Put plainly: cryo-EM structure; GCase/sLIMP-2/PMb1/PMb2 complex from SEC, 0.6 mg/ml, single particle analysis, 3.7 Å global resolution.

B1: pro-macrobody PMb1 (nanobody Nb1, CA16655, fused to maltose binding protein) (VHH)
VHH: QVQLVESGGGLVQPGGSLRLSCAASGFTLDYYAIGWFRQAPGKEREGVSCISSSDGSTYYADSAKGRFTISRDNAKNTVYLQMNSLKPEDTAVYYCATDRGQCTYYSSGYYRDLRWYDYWGQGTQVTVPP
notes: nanobody Nb1 (CA16655) raised against GCase; proline-proline linker, told in words; The N-terminal pelB-10xHis-MBP was removed with 3C protease; the C-terminal MBP is part of the pro-macrobody and was detected by anti-MBP blot; By my reading of the printed primers the C-terminal MBP begins at LVIWING after the PP linker and ends at KDAQT followed by PGA; Only the nanobody domain is modelled in …
Take B1: in test [1], the binding result is “binds”.

B2: nanobody Nb1 (CA16655) against GCase (VHH)
VHH: B1 VHH with P129S, P130S
notes: nanobody Nb1 (CA16655); they are in PDB 9ENA and, as the nanobody domain of m3, in PDB 9FJF; Encoded in a pHEN29 vector; also called Nbs1
B2: the binding result in test [2] is reported as “binds”.

B3: Saposin C (SapC) (natural protein, Homo sapiens, UniProt P07602 311-390, looked up)
chain: SDVYCEVCEFLVKEVTKLIDNNKTEKEILDAFDKMCSKLPKSLSEECQEVVDTYGSSILSILLEEVSPELVCSMLHLCSG
notes: Saposin C, Homo sapiens, the cut product of prosaposin; synthetic gene, codon optimised for E. coli, in pET-28a(+); The His6-tag is followed by a TEV protease cleavage site; no cleavage is described in the purification; source: E. coli BL21(DE3) or BL21(DE3)pLysS, purified (HisTrap, Superdex 75)
Take B3: in test [3], the binding result was “binds”.

B4: pro-macrobody PMb2 (nanobody Nb6, CA16669, fused to maltose binding protein) (VHH)
VHH: QVQLVESGGGLVQPGGSLRLSCAASGSIFSINTMGWYRQAPGKEREMVAYIITFGSTNYADSVKGRFTISGDNANNTMWLQMNSLKPEDTAVYYCYAAIRPTDSSTYTSYWGQGTQVTVPP
notes: nanobody Nb6 (CA16669) raised against GCase; proline-proline linker, told in words; The N-terminal pelB-10xHis-MBP was removed with 3C protease; Only the nanobody domain is modelled in PDB 9FJF; also called PMbs; source: E. coli MC1061, purified (Ni-NTA, 3C cleavage, second IMAC, SEC); not shown: His10, N-terminal, cleaved; MBP, N-terminal, cleaved
Consider B4, for which, in test [1], the binding result is listed as “binds”.

B5: nanobody Nb6 (CA16669) against GCase (VHH)
VHH: B4 VHH
notes: nanobody Nb6 (CA16669); they are, as the nanobody domain of m4, in PDB 9FJF; Encoded in a pHEN29 vector
Take B5: the binding result in test [2] is given as “binds”.

B6: soluble LIMP-2 shuttle construct (sLIMP-2), secreted LIMP-2 ectodomain, wild type (domain or fragment, human, UniProt Q14108 36-431, looked up)
chain: SIEKKIVLRNGTEAFDSWEKPPLPVYTQFYFFNVTNPEEILRGETPRVEEVGPYTYRELRNKANIQFGDNGTTISAVSNKAYVFERDQSVGDPKIDLIRTLNIPVLTVIEWSQVHFLREIIEAMLKAYQQKLFVTHTVDELLWGYKDEILSLIHVFRPDISPYFGLFYEKNGTNDGDYVFLTGEDSYLNFTKIVEWNGKTSLDWWITDKCNMINGTDGDSFHPLITKDEVLYVFPSDFCRSVYITFSDYESVQGLPAFRYKVPAEILANTSDNAGFCIPEGNCLGSGVLNVSICKNGAPIIMSFPHFYQADERFVSAIEGMHPNQEDHETFVDINPLTGIILKAAKRFQINIYVKKLDDFVETGDIRTMVFPVMYLNESVHIDKETASRLKSMINT
modifications: N-glycans at N45, N68, N105, N206, N224, N249, N304, N325, N412
notes: lysosomal integral membrane protein type-2 (LIMP-2), human, gene SCARB2, amino acids 36-431 (ectodomain); the 10xHis tag is TEV-cleavable, and no cleavage is described; also called wt sLIMP-2; lysosomal integral membrane protein type-2; source: HEK 293F cells transfected, in conditioned medium; not shown: His10, C-terminal, kept
On to B6, for which the binding result in test [4] is recorded as “binds”.
